Test results published in US20250257112A1.

molecular target: PTH receptor ("PTHIR"); assay: cell-based or functional assay

| cAMP potency (EC50) [nM] | Substance |
| --- | --- |
| 0.24 | PTH-66, PTH(1-74)-[F34A, V35S]-hFcLALA-deltaLys (Fc fusion) |
| 0.24 | PTH-67, PTH(1-64)-[F34A, V35S]-hFcLALA-deltaLys (Fc fusion) |
| 0.21 | PTH-68, PTH(1-54)-[F34A, V35S]-hFcLALA-deltaLys (Fc fusion) |
| 0.28 | PTH(1-84)-Fc with F34A, V35S (Fc fusion) |
